Assay results: a protein production outcome set (Wang et al. 2014)

Assay: label from the status in PepcDB records

Sequence | protein production
MLKAFRKNQHPVAIPSTLPDGSAWPRISIVTPSYNNAKYIEETIISVLEQGYPDVEHIIVDGASKDGTAAILDRYRGHVARIIQEPDTGQSNAINKGMRLATGEIVTWLNSDDLLAPGALAAVAMAFHMSGADMVAGGCQLYRNGGYLGTHLTSCADGTLPAEEISDLYGGWQTGKFFYQPEVMFTRDLWQRAGGQVREDLHYCMDVEMWLRFASCGARLHVIGAPVAMFRLHEEQKTNNPDASPDEYIPVANAWRTTHGLPPITRTTLPPPPPPLKVAFVNDIGFQYGAGIAHQRLFTAVSSAGHTVRGWATGFQSPRDVFEATAARIISEIEAFEPDVVVCGNLHCTIADSDMLVRLTDRWPTCFCLHDLWLLTGHCPHPGFLDCVRHLAGCDHTCPSPDTYPTIAAGDIRKAWDAKREVMARDTFLALANSNWTRAQHDGCTTPGHEARLLRLGCDESIFHPGDRLEARRQLGLDMDAFVVLMPMVDFSSPFKGSVEGLEALSGAGLENLQVICFGVVEQEMIARFPILTALGYLHDPEAVATAYRAADVVVSFSHAETFGQTLMEAACCGIPSLAYRCTGLPDAVVDGVSGFLVDETPDALITRLHQLHADANLRASLGTWAALYARNSRCLQAEYHSFHTNLEEAGLLAPGRLGKNIFFAHTEAHEAEPSIPVSDPRPGSAFKNWLRRELPTPVWMALRRVYRGTKSRLGMHP | failed
MERDTVLTATPTIDADLADATSCATPSRTAVSPLLPVLAALAAVVLWGGAFPAMKVAVQTLGTWQMMWARMVFALLLLVPLARRLAPARIERRDLPLLAGMALMQPCLYFLCESTALQLTTSSQAGVMAASMPLMMAVGGFLLGEKVSPRLWFGVGVSCIGVAWLTSSGGEGGGSAPDPFTGNLLELAAMACATGSSLCIGALISRGKGRWNALTLTGIQTLAGAVFFLPGAPGVIGGVADWSTEVLLAVVYLGGASSLGAFGLYNWALGHMPASRAGNFINLVPVAAIFFGWLLLGETLTTTQYLATGLVMGGVLMGTRAR | failed
MRKLISIFLILCTFLLCGCSDVKHELNRLSLVLCSGIDLSEDGRYIYTVEILNVGASSPQSSGKQGASPSINVFSSEGHTITEAFNNASVLSGEPLFFAHSRMVVVGERLAKYGLSDMMDKLFRHYTIRPDGLIFVTKGNARDIVSTYTPDQPLPAEKLRTMSMLQEMTGYSISYSRLDLVKALTSKSHAGAIGLISLRPDQKFSNRFNMYGAGVFKKDKLVGYLDTYETRGLQWVTGHISSGSILVPLPDGKRIVFDIIDSKSKIKTKVNGNKLTMEINVAEESLISETNDKTNVMKHYKEMNKLAKLESEAIKKEVSSALAASQDRLKTDIFGFGSEIYRDNPKYWKTVENNWDNIFPNVNVKINVKCIVRRPGLTSQPII | failed
MANAIRLPPEAYPMSIAAQKNDDDRQARALAALAEKPDGIVEAIAAKAEVAPAEILAILPQGAAVSAPADRFDAIWNEMRGWGEILMIVQTGDIVLEVPGHLPEGTESHGWFNIHGDSPIGGHIKKDNCAAITFVDRGFHGRRSCSVWFMNAAGGAMFKIFVRRDENKELLAGQLAKFEELRDGFRGLEHHHHHH | not failed
MSEAKELIKKMCDLQNSNEEIQKEMAGWSGVVQYKLDGYYFYVEYKSDGTCEFKEGVHSSPTFTVVAPPDFWLAVLKGQEDPVSGFMMGKYRIEGNIMEAQRLAGVIKKFQGKFEL | not failed
MKEKGGDSLKYCYQCGLCDSVCPWNRVRQFSMRKIVRQGTFGLTEIEQEDIWRCSTCGTCPSRCPRGVNQIEAGVAMRRIGAEYDVLEHHHHHH | failed
SDESDLPSAMPAVPAFGVEERNMVSGVLTLAERSIRSIMTPRTDVSWVNIDDDAATIRQQLTAAPHSFFPVCRGSLDEVVGIGRAKDLVADLITEGRVRRNRLRDPIIVHESIGILRLMDTLKRSRGQLVLVADEFGAIEGLVTPIDVFEAIAGEFPDEDELPDIVA | failed
MDTVWMEIWTTVRNEFADIPDVAEATRIVLRLGMAVALGGLLGYERERSGKAAGLRTHMLVALGAALFVLVPLQGGMEVGDLSRVLQGVIAGIGFLGAGAIIKLGNEGEIRGLTTSAGIWLTAAIGVAAGMGREATALASTLIALFVLAALRHLEKRIAARDDKRVVAQPPP | failed
MADGIYGSFENLKKHAGAMTLETYMRFNAKLSEAKDEMGAKEYEEFTKELKKLTNAKLAYGDSNGNIDYDGLSPAKREEMKKVSMGLQPYFDKLNGHKSSKEVLTQEEFDRYMEALMTHEIVRVKTKSTGAIKIEEVPEAYKERFIKAEQFMEYVDEKVR | not failed
MSQQKSDFADDADIDESLDELASEETIEETVENLEANGFEVIVVNSADDALAELQSLIPAEASVMNGHSTTLEEIGFDEYLSDGDHGWESLPEEIWSIDDDAKRQAARRESQTADYFLGGINGISQTGELVAADRSGSRIGAYPFAASNVVIVSGVNKIVPTLEDALDRLETVAYPLENERAKEAYGVDSAIAKQLILRQELEEGRTTVVLIREHLGYLEHHHHHH | not failed
MDQPWNANIHYDALLDAMVPLGTQCVLDVGCGDGLLAARLARRIPYVTAVDIDAPVLRRAQTRFANAPIRWLHADIMTAELPNAGFDAVVSNAALHHIEDTRTALSRLGGLVTPGGTLAVVTFVTPSLRNGLWHLTSWVACGMANRVKGKWEHSAPIKWPPPQTLHELRSHVRALLPGACIRRLLYGRVLVTWRAPVLEHHHHHH | failed
MTESNFDLPIISVIIPAYNCEKTIKKTIDSVLDQSFTDFELIVINDGSQDATLDIVSQIEDSRIKIFSFENAGGNVSRNRGLNLAVGKFISFLDADDIWTPNKLESQLEALHNNPGFHVAYSWTDYIDEDGNFLISGRRVTLNGDVYKKLFINNFLENGSNPLICKEALIALGGFDESLKAAQDWDMWLRLANKYSFVAVPYVQILYRVSSNSLSSNLVRQEKACKQVLEKAYQARPAIGNHILHLSIANLYKYLACKALQKPYSRSKGLAAVKFIWQYFLYDSSRMRRINSTLKLLFKALIIIILPAGLSTELLAKMRTKSLNPQLSAISGS | failed
MSADYPRDLIGYGNNPPHPHWPGDARIALSFVLNYEEGGERCVLHGDKESEAFLSEMVAAQPLQGVRHMSMESLYEYGSRAGVWRLLKLFKRRNVPLTVFAVAMAAQRNPEVIRAMVADGHEICSHGYRWIDYQYMDEAQEREHMLEAIRILTELTGQRPVGWYTGRTGPNTRRLVMEEGGFLYDSDTYDDDLPYWDPASTAEKPHLVIPYTLDTNDMRFTQVQGFNNGEQFFQYLKDAFDVLYEEGATAPKMLSIGLHCRLIGRPARMAALERFIQYAQSHDKVWFARREDIARHWHREHPFQETEA | not failed
ESRLDRILESGVLRVATTGDYKPFSYRTEEGGYAGFDVDMAQRLAESLGAKLVVVPTSWPNLMRDFADDRFDIAMSGISINLERQRQAYFSIPYLRDGKTPITLCSEEARFQTLEQIDQPGVTAIVNPGGTNEKFARANLKKARILVHPDNVTIFQQIVDGKADLMMTDAIEARLQSRLHPELCAVHPQQPFDFAEKAYLLPRDEAFKRYVDQWLHIAEQSGLLRQ | failed
MVSRRGVAGLDFDNRVRSLINTFGLVSVHVQCYFIISDLCLRDSSHQGIFLVSVTRSGCLMVHDFESLYCQSKLGPGSAEDESKHVVHFSYPPGREFDVARWNPSNQNEVACTSRKHDQVLIFDISYMSPKPTEVLQTRQKLSIIGRKISRGLSDVAITSDEDSRIFSPDTLGMVHVWDRRAGVSPCIELSTDRYDSIKSIQIYVDNQTIFGAGKEGIIHIWDLRGGRNSSAFQSRKDVSLTRGELELAMAMSQLPLASLHLAPKLQKIASLKAQSEIVPKEIHSIDVNPSSPHQLAFHLDDGWSGVLDIYKSEVTHVHCPPPAWLDGSNSSADLILRKPSWLPTSSIYVVGSMSEKGIHVLDFHPSSRSPCHVDYDEDTQRNEKRDKCNHRNKFVSLSETVTGCAAHPLNGMIVAGTQNSSLLLIAQMHCSSSSETAEGEL | failed
MSSSGIEIAKPFVTATTNVLSTMAGIQPIPGQPYVKKNNVAKGDVSAVVGITGHKNGSISVTFTKQCAIAVVKAMLGDDIQDIIQDTKDAVGEVTNMISGQARAALSEMGMTFQGATPSVIMGDGHTISHVTKSPVIAIPFKTNHGEFTVEFCLE | not failed
MRKRNPRRATPEELRVCSVLKEKGTREELAHLAARGEWSNVPAYNASREQIADHLGKSVSPESDASFFDSRRFSEAIVLLKSRPVLLVKNGIFDEAPLAGLEQRLKKHRAALATPIRSVGRLELIDHDSMDWCGTGWRIEDDLIVTNRHVASLFAERQGSLFRFRLNQAGKQVRTRVDFREEYRQPESDEHVIARVLWIAPDVSEAPDMAILQVVKGDLLPPPLVLARQDAEPRQAVAVVGYPARDSRNDAGAMEDIFGNIYDVKRFAPGEVVGLPHDAWYLTHDCSTLGGNSGSAVLSIDGGEVVGLHFGGQFRKTNYAVKASVIRSLLARRAWVPVAGAELKRGVPRFQEKQRSVADLAERKGFDEAFLGPKAALPKPGKSHQVLPVGKGTRLDYLHFSVVMSASRRLPILTAVNIDGALKRSLKRKDSWGFDPRIEAAAQVGHKDFYGPASFDKGHMVRREDPGWGDSDAVARQAEDDTFVYTNAVPQVAQLNQRSWLSLEDYVLQNARSEGFRISVFTGPVFRDDDPLYQGVQVPLEFWKVVAMIDADSGELGVSAYLLGQEGMMPSEGFRYGAFKTYQVPLAKVEASADLRFSSALRKADVLAGTPLEEALESGRFIEIDGPDDLLLSRPGPAGKGPLRFRPAAATRVAVR | failed
MIDPRPVGYILGLLVATLGALMLVPMALDLAAGDRHWLSFAETATITTVAGSMLALACANGRGQGTGLSLQQSFLLTTGAWVLLPVFGALPFMMGRPDASFTDAVFEAMSGFTTTGTTVFVGLDALPLGTNLWRGMLQWLGGLGIVIVAMIFLPVMKVGGMQFFRSEGFDTLGKILPRALDISTALIQIYLVLTMACVMTFLALGIPLFEAVVHALTTVSTGGFSSSDRSFGLFQGPAEYACAFFMVLASLPFVRFVQLAQGTFLPLWRDPQVRAYLRWNGYAIGLIVAYEVVTRNAPVLPTLRETTFNVISTFSGTGFSSVDLGLWGTFPFVLLIVVGLIGGCTSSTGCSVKVFRYLILLEAIKVQIRRLQSPSAVIFVDYEGRRVGEDVINSVILFFTMFILSFGVLAVLLSLTGLQTKTAITAAWTAIANVGPAFGPEVSATGAVDRFPAVAKWLMIGGMLVGRLELLSVFVLLTPRFWRS | failed
MLTTLQNIMKLPNEIDEYLASRNFSENTRSNYHYDLVSLQAFFEDKSLTTENLELYKIQISNLSPAAQRRKISSANQYLLFLYQRQKVDQYFKIKQVVQKKSQTAQSYHPMIKEFPEFYGPLTCPGQFLALLILEFGLNFAEIQKLKWENFNWNFKYLTIEKAGIKRVLPIREKFAIRVKAINNADELFAKSRQFLYTELKKFTNYSSKEIREQYILHQVKAGKSIYELATLLGLTTITTLEKYYR | failed
MEQPMKPTVIITGASSGVGLYGAKALIDKGWHVIMACRNLDKTQKVADELGFPKDSYTIIKLDLGYLDSVRRFVAQFRELGRPLKALVCNAAVYFPLLDEPLWSADDYELSVATNHLGHFLLCNLLLEDLKACPDADKRLIILGTVTANSKELGGKIPIPAPPDLGNFEGFEAGFKKPIAMINNKKFKSGKAYKDSKLCNMLTTRELHRRFHQETGIVFNSLYPGCVADTPLFRNHYSLFRTIFPWFQKNVTKGYVSQELAGERVAMVVADDKFKDSGVHWSWGNRQQAGREAFVQELSEQGSDAQKAQRMWDLSEKLVGLV | failed
GQTCARPMCIPPSYADLGKAARDIFNKGFGFGLVKLDVKTKSCSGVEFSTSGSSNTDTGKVTGTLETKYKWCEYGLTFTEKWNTDNTLGTEIAIEDQICQGLKLTFDTTFSPNTGKKSGKIKSSYKRECINLGCDVDFDFAGPAIHGSAVFGYEGWLAGYQMTFDSAKSKLTRNNFAVGYRTGDFQLHTNVNDGTEFGGSIYQKVCEDLDTSVNLAWTSGTNCTRFGIAAKYQLDPTASISAKVNNSSLIGVGYTQTLRPGVKLTLSALVDGKSINAGGHKVGLALELEA | failed
